Positions count from the first letter of the chain named.

The target of experiment [1] is T1, human CLDN18.2 (human).
T1 construct: the HEK293 line was made with a GenScript plasmid; also called hCLDN18.2
The experiment is described as follows: FACS on NUGC4_D8 cells.

The target of experiment [2] is T1, human CLDN18.2. The experiment is described as follows: cell-based or functional assay.
Experiment [3] concerns the target T2, human CD3 on Jurkat cells (human, UniProt P07766 23-207).
T2 construct: whole, on cells; on cells it stands in the whole CD3/TCR complex; also called CD3-expressing cells
As to the kind of experiment: FACS on Jurkat cells.
Protocol: (§1) Antibodies were assayed for binding affinity by FACS. Test cells include HEK293/hCLDN18.2, HEK293/hCLDN18.1, NUGC4_D8 and Jurkat cells. […] The cell density was adjusted to 10⁶ cells/mL, and 50 μL of the cell suspension was added to each well of a 96-well plate. Antibodies were diluted to different concentrations with FACS buffer, and 50 μL of the antibody dilution was added to each well of the 96-well plate. After 2 h of incubation at 4° C., the plate was washed twice with FACS buffer. […] After 1 h of incubation at 4° C., the plate was washed twice with FACS buffer. The cells were resuspended in fixative solution, and then the fluorescence of the cells was monitored using an FACS instrument (ACEA NovoCyte).

A further experiment addresses T3, human CLDN18.1 (human, UniProt P56856 1-261).
T3 construct: whole, on cells; also called hCLDN18.1
The experiment is described as follows: FACS on HEK293/hCLDN18.1 cells.

Experiment [4] concerns the target T2, human CD3 on Jurkat cells. As to the kind of experiment: FACS on Jurkat cells (CD3).
Protocol: as §1
Experiment [5] concerns the target T1, human CLDN18.2. The experiment is described as follows: FACS on HEK293/hCLDN18.2 cells.
Protocol: as §1
The target in experiment [6] is CLDN18.2 of SNU620 cells (methionine to leucine at amino acid 149) (human, UniProt P56856-2 1-261). The experiment is described as follows: cell-based or functional assay.
In experiment [7] the target is T4, Human CD3E (Acro, CDE-H5223) (human, UniProt P07766 23-126, biotinylated (mixed with biotin 1:3)).
T4 construct: also called Human CD3Ec
The experiment is described as follows: BLI (Octet), biotinylated CD3 on SA sensor, 1:1 global fit.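 Note: antibodies applied as analyte in 2-fold serial dilutions, with a 180 s association phase followed by a 300 s dissociation phase.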
Protocol: (§2) The binding kinetics between proteins and antibodies was analyzed by the Biolayer Interferometry (BLI) technique using an Octet Red 96e (Fortebio) system. Human CD3E (Acro, CDE-H5223), cynomolgus CD3E (Acro, CDE-C5226) and murine CD3E (Acro, CDE-M5256) were mixed with biotin (Thermo Scientific, A39257) in a molar ratio of 1:3. The mixture was incubated at 4° C. overnight, and then excess biotin was removed to obtain biotinylated CD3E. The rotation speed was set at 1000 rpm for the system. […] After being equilibrated in the buffer for 120 s, the SA sensor with captured CD3 was allowed to bind to 2-fold serially diluted antibodies. […] Finally, the SA sensor was immersed in a 10 mM glycine-hydrochloric acid solution at pH 1.5 for regeneration to elute the antibodies bound to the sensor. […] For the interactions of fast binding and fast dissociation, the “steady state” method was selected to fit the data to obtain KD(M) values.

Experiment [8] addresses T5, Biotinylated human CD3E&D (human, UniProt P07766 23-126; P04234 22-105, biotin label).
T5 construct: also called CDD-H82W6
Described as above.
Protocol: as §2

Experiment [9] deals with T6, Biotinylated murine CD3E&D (murine, UniProt P22646 22-108; P04235 22-105, biotin label).
T6 construct: also called CDD-M82W5
The experiment is described as follows: BLI (Octet), biotinylated CD3 on SA sensor. (In general: In BLI a coated tip is dipped into the sample, and binding shifts an interference pattern.)
Protocol: as §2

T4 sequence (P07766 23-126 limits assumed): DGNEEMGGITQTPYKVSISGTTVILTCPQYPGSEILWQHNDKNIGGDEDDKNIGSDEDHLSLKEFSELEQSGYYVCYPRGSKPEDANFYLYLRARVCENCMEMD
T5 sequence (P07766 23-126, chain 1 of 2): as the sequence (P07766 23-126 limits assumed) above
T5 sequence (P04234 22-105, chain 2 of 2): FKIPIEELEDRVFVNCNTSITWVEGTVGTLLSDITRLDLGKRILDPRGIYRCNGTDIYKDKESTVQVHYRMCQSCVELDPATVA
T2 sequence (P07766 23-207): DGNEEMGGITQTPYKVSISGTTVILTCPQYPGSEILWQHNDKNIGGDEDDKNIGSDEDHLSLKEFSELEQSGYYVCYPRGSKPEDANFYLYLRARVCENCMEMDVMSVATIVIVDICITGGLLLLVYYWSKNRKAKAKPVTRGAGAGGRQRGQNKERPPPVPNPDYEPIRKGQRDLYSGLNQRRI
T6 sequence (P22646 22-108, chain 1 of 2): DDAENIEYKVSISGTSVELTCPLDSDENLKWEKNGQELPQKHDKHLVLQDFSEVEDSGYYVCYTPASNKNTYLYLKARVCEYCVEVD
T6 sequence (P04235 22-105, chain 2 of 2): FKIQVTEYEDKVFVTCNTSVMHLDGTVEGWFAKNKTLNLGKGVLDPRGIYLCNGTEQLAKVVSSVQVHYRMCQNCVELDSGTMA
T3 sequence (P56856 whole entry): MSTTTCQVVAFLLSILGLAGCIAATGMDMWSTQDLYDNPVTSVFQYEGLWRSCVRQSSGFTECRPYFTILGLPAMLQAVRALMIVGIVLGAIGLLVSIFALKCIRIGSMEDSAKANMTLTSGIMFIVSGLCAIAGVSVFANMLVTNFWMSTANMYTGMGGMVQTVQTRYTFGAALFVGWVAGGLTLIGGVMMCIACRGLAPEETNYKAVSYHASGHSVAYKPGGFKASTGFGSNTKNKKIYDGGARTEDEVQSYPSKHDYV
Chain of CLDN18.2 of SNU620 cells (methionine to leucine at amino acid 149) (P56856 other isoform, or with tags, fused parts or gaps limits assumed): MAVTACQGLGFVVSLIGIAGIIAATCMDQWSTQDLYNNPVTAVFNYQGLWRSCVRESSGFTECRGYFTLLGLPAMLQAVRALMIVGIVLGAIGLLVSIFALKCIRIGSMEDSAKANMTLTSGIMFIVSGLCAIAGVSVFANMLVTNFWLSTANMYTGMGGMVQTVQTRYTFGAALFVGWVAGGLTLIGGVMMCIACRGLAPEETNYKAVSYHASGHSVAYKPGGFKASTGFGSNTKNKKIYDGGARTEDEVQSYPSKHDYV
Protocol for human CLDN18.1: as §1

B1: PR005520 (bispecific antibody)
chain 1: EVQLVESGGGLVQPGGSLRLSCAASGFTFSSYWMHWVRQVPGKGLVWVSRINSDGSRTIYADSVKGRFTISRDNAKNTLYLQMNSLRAEDTAVYYCARGEDHDILTGYPIRGQGTTVTVSSGGGGSGGGGSGGGGSEVQLVESGGGLVQPGGSLRLSCAASGFTFSSYWMHWVRQVPGKGLVWVSRINSDGSRTIYADSVKGRFTISRDNAKNTLYLQMNSLRAEDTAVYYCARGEDHDILTGYPIRGQGTTVTVSSASEPKSSDKTHTCPPCPAPEAAGGPSVFLFPPKPKDTLMISRTPEVTCVVVDVSHEDPEVKFNWYVDGVEVHNAKTKPREEQYNSTYRVVSVLTVLHQDWLNGKEYKCKVSNKALPAPIEKTISKAKGQPREPQVCTLPPSREEMTKNQVSLSCAVKGFYPSDIAVEWESNGQPENNYKTTPPVLDSDGSFFLVSKLTVDKSRWQQGNVFSCSVMHEALHNHYTQKSLSLSPGK
chain 2: not shown
light: QAVVTQEPSLTVSPGGTVTLTCRSSTGAVTTSNYANWVQQKPGQAPRGLIGGTNKRAPWTPARFSGSLLGDKAALTLLGAQPEDEAEYFCALWYSNLWVFGGGTKLTVLGQPKAAPSVTLFPPSSEELQANKATLVCLISDFYPGAVTVAWKADSSPVKAGVETTTPSKQSNNKYAASSYLSLTPEQWKSHRSYSCQVTHEGSTVEKTVAPTECS
notes: PR001848 / PR004533; LALA
Molecule B1 came in with an EC50 with human CLDN18.2 [1] of 13.9 nM. In addition, in the experiment with human CLDN18.2 [2], the “TDCC, Titer EC50 (pM), NUGC4_D8” value was 22.4 pM. Further, the binding result in [3] is on record as “binds”; with human CLDN18.1, “no binding”.

B2: PR007083 (bispecific antibody, human IgG1, lambda)
chain: B1 chain 1 with S49C, N52S, G55A, I70C, S185C, N188S, G191A, I206C, G281A
heavy: EVQLVESGGGLVQPGGSLKLSCAASGFTFSTYAMNWVRQASGKGLEWVGRIRSKYNNYATYYADSVKDRFTISRDDSKNTAYLQMNSLKTEDTAVYYCTRHGNFGNSYVSWFAYWGQGTLVTVSSASTKGPSVFPLAPSSKSTSGGTAALGCLVKDYFPEPVTVSWNSGALTSGVHTFPAVLQSSGLYSLSSVVTVPSSSLGTQTYICNVNHKPSNTKVDKKVEPKSCDKTHTCPPCPAPEAAGAPSVFLFPPKPKDTLMISRTPEVTCVVVDVSHEDPEVKFNWYVDGVEVHNAKTKPREEQYNSTYRVVSVLTVLHQDWLNGKEYKCKVSNKALPAPIEKTISKAKGQPREPQVYTLPPCREEMTKNQVSLWCLVKGFYPSDIAVEWESNGQPENNYKTTPPVLDSDGSFFLYSKLTVDKSRWQQGNVFSCSVMHEALHNHYTQKSLSLSPGK
light: B1 light
notes: structure 1; CD3 Fab from PR003886; AAA
For the molecule B2, the binding result in [4] is “binds”. Moreover, the half-maximal effective concentration (EC50) with human CLDN18.2 [5] was determined as 9.6 nM.

B3: PR005401 (bispecific antibody, human IgG1, lambda, L234A L235A)
chain: B1 chain 1 with N52D, D54R, N188D, D190R
heavy: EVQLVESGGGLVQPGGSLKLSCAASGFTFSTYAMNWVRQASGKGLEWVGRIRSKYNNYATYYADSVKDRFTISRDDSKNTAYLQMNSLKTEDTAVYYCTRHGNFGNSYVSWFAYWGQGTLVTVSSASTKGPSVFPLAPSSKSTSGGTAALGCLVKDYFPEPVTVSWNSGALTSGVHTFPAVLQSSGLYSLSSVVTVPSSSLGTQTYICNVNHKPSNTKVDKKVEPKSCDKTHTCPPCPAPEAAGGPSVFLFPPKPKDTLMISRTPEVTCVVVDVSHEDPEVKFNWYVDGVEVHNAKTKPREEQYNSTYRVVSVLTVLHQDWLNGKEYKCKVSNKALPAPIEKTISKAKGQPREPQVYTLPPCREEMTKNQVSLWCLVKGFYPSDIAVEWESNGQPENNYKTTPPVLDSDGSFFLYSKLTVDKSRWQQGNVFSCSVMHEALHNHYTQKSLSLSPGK
light: B1 light
notes: structure 1; CD3 Fab from PR003886, CLDN18.2 VH from PR007244; LALA
Take B3: the EC50 with human CLDN18.2 [1] was found to be 13.1 nM; in the experiment with human CLDN18.2 [5], 17.5 nM. In addition, in the experiment with human CLDN18.2 [2], the “TDCC, Titer EC50 (pM), NUGC4_D8” value worked out at 6.4 pM. Also, the “TDCC, Titer EC50 (pM), SNU620” value in experiment [6] came to 25.8 pM. The binding result in experiment [3] is “binds”.

B4: PR004931 (bispecific antibody)
chain 1: QVQLVQSGAEVKKPGASVKVSCKASGYTFTEFGMNWVRQAPGQGLEWMGWINTKTGEATYVEEFKGRVTFTTDTSTSTAYMELRSLRSDDTAVYYCARWDFAYYVEAMDYWGQGTTVTVSSASTKGPSVFPLAPSSKSTSGGTAALGCLVKDYFPEPVTVSWNSGALTSGVHTFPAVLQSSGLYSLSSVVTVPSSSLGTQTYICNVNHKPSNTKVDKKVEPKSCDGGGGSGGGGSEVQLLESGGGLVQPGGSLRLSCAASGFTFSTYAMNWVRQAPGKGLEWVSRIRSKYNNYATYYADSVKGRFTISRDDSKNTLYLQMNSLRAEDTAVYYCVRHGNFGNSYVSWFAYWGQGTLVTVSSASVAAPSVFIFPPSDEQLKSGTASVVCLLNNFYPREAKVQWKVDNALQSGNSQESVTEQDSKDSTYSLSSTLTLSKADYEKHKVYACEVTHQGLSSPVTKSFNRGECDKTHTCPPCPAPEAAGGPSVFLFPPKPKDTLMISRTPEVTCVVVDVSHEDPEVKFNWYVDGVEVHNAKTKPREEQYNSTYRVVSVLTVLHQDWLNGKEYKCKVSNKALGAPIEKTISKAKGQPREPQVYTLPPCREEMTKNQVSLWCLVKGFYPSDIAVEWESNGQPENNYKTTPPVLDSDGSFFLYSKLTVDKSRWQQGNVFSCSVMHEALHNHYTQKSLSLSPGK
chain 2: QAVVTQEPSLTVSPGGTVTLTCGSSTGAVTTSNYANWVQEKPGQAFRGLIGGTNKRAPGTPARFSGSLLGGKAALTLSGAQPEDEAEYYCALWYSNLWVFGGGTKLTVLSSASTKGPSVFPLAPSSKSTSGGTAALGCLVKDYFPEPVTVSWNSGALTSGVHTFPAVLQSSGLYSLSSVVTVPSSSLGTQTYICNVNHKESNTKVDKKVEPKSC
chain 3: QVQLVQSGAEVKKPGASVKVSCKASGYTFTEFGMNWVRQAPGQGLEWMGWINTKTGEATYVEEFKGRVTFTTDTSTSTAYMELRSLRSDDTAVYYCARWDFAYYVEAMDYWGQGTTVTVSSASTKGPSVFPLAPSSKSTSGGTAALGCLVKDYFPEPVTVSWNSGALTSGVHTFPAVLQSSGLYSLSSVVTVPSSSLGTQTYICNVNHKPSNTKVDKKVEPKSCDKTHTCPPCPAPEAAGGPSVFLFPPKPKDTLMISRTPEVTCVVVDVSHEDPEVKFNWYVDGVEVHNAKTKPREEQYNSTYRVVSVLTVLHQDWLNGKEYKCKVSNKALGAPIEKTISKAKGQPREPQVCTLPPSREEMTKNQVSLSCAVKGFYPSDIAVEWESNGQPENNYKTTPPVLDSDGSFFLVSKLTVDKSRWQQGNVFSCSVMHEALHNHYTQKSLSLSPGK
chain 4: DIQMTQSPSSLSASVGDRVTITCKASAAVGTYVAWYQQKPGKAPKLLIYSASYRKRGVPSRFSGSGSGTDFTLTISSLQPEDFATYYCHQYYTYPLFTFGQGTKLEIKRTVAAPSVFIFPPSDEQLKSGTASVVCLLNNEYPREAKVQWKVDNALQSGNSQESVTEQDSKDSTYSLSSTLTLSKADYEKHKVYACEVTHQGLSSPVTKSFNRGEC
notes: also called anti-CEA×CD3 bispecific antibody (WO2017055389A1, Roche)
Turning to B4, in experiment [7], the Kd came to 30.8 nM, the koff is 0.00225 s⁻¹ and the on-rate (kon) was 73100 M⁻¹ s⁻¹. In addition, in experiment [8], the dissociation constant Kd worked out at 33.7 nM, the dissociation rate constant (koff) was determined as 0.00137 s⁻¹ and the kon was 40700 M⁻¹ s⁻¹. Further, the binding result in experiment [9] is on record as “no binding (tested: 120-7.5 nM)”.

As usually defined, the EC50 is the concentration giving half of the maximal effect. A higher EC50 goes with weaker potency. For orientation: Kd means the constant that tells how readily two partners part at equilibrium. A lower Kd goes with a tighter complex. What is called koff is a measure of how fast the partners let go of each other. A higher koff goes with fast dissociation. By kon is commonly meant the rate constant with which the complex forms. A higher kon goes with faster complex formation.

The values above are taken from patent US20250340631A1 (HARBOUR BIOMED SHANGHAI, published 2025).
